From patent US20170307628A1 (EIDGENOESSISCHE TECHNISCHE HOCHSCHULE ZURICH, published 2017)

Target: T1, EGFR on cells (UniProt P00533 25-1210, limits assumed)
T1 construct: whole, on cells; also called epidermal growth factor receptor
Assay: flow cytometry on MDA-MB-468 cells, anti-human-Alexa 488

B1: anti-CD3 antibody (COVA489) (antibody, human IgG1, kappa, V domains shown)
VH: QVQLQQSGAELARPGASVKMSCKASGYTFTRSTMHWVKQRPGQGLEWIGYINPSSAYTNYNQKFKDKATLTADKSSSTAYMQLSSLTSEDSAVYYCASPQVHYDYNGFPYWGQGTLVTVSA
VL: QVVLTQSPAIMSAFPGEKVTMTCSASSSVSYMNWYQQKSGTSPKRWIYDSSKLASGVPARFSGSGSGTSYSLTISSMETEDAATYYCQQWSRNPPTFGGGTKLQITR
- binding result: no binding (tested: 100 nM)
